Test results as given in patent publication US20250099635A1 (Janssen / Centocor, published 2025).

Molecular target: T1, soluble human kallikrein related peptidase 2 (hK2) protein (human, UniProt P20151 19-261)
T1 construct: The stated signal peptide is left out here; also called soluble hK2; KLK2
Test: SPR; antibody captured by anti-Fc antibody, soluble hK2 injected; 1:1 Langmuir fit
Experimental: Affinity of selected hK2 antibodies for soluble hK2 was measured by surface plasmon resonance (SPR). […] Antibodies were captured on a sensor chip coated with an anti-Fc antibody followed by injection of soluble hK2 at various concentrations and specified association and dissociation times. Post dissociation, the surface was regenerated with an appropriate solution to prepare for the next interaction. Kinetic information (on-rate and off-rate constants) were extracted by fitting sensorgrams to the 1:1 Langmuir model. Binding affinity (KD) are reported as the ratio of rate constants (koff/kₒₙ).

T1 sequence (P20151 19-261): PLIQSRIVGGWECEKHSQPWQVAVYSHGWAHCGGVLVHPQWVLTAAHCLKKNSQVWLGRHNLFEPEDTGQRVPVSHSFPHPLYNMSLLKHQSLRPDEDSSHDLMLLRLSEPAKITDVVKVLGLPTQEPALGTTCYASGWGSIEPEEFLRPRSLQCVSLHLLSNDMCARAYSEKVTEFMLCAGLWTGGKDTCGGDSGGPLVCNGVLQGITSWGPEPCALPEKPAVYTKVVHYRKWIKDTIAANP

| Kd [nM] | Binder |
| --- | --- |
| 0.46 | KL2B30 (Fab) (Fab, V domains shown) VH: QVQLQESGPGLVKPSETLSLTCTVSGGSISSYYWSWIRQPPGKGLEWIGYIYYSGSTNYNPSLKSRVTISVDTSKNQFSLKLSSVTAADTAVYYCAGTTIFGVVTPNFYYGMDVWGQGTTVTVSS VL: DIQMTQSPSFLSASVGDRVTITCRASQGISSYLAWYQQKPGKAPKFLIYAASTLQSGVPSRFSGSGSGTEFTLTISSLQPEDFATYYCQQLNSYPLTFGGGTKVEIK |
| 0.053 | KL2B494 (Fab) (Fab, V domains shown) VH: QVQLVESGGGLVQPGGSLRLSCAASGFTFSHYAMSWVRQAPGKGLEWVSTIGGSGGSTYYADSVKGRFTISRDNSKNTLYLQMNSLRAEDTAVYYCAKPHIVMVTALLYDGMDVWGQGTMVTVSS VL: SSELTQPPSVSVAPGQTARITCGGNNIGSKSVHWYQQKPGQAPVLVVYDDSDRPSGIPERFSGSNSGNTATLTISRVEAGDEADYYCQVWDSSSDHVVFGGGTKLTVL |
| 0.04 | KL2B242 (Fab) (Fab, V domains shown) VH: QVQLQESGPGLVKPSETLSLTCTVSGGSISSYYWSWLRQPAGSGLEWIGRLYVSGFTNYNPSLKSRVTLSLDPSRNQLSLKLSSVTAADTAVYYCAGDSGNYWGWFDPWGQGTLVTVSS VL: SYELTQPPSVSVSPGETASITCSGDQLGENYACWYQQKPGQSPVLVIYQDSKRPSGIPERFSGSNSGNTATLTISGTQALDEADYYCQAWDNSIVVFGGGTKLTVL |
| 0.08 | KL2B53 (Fab) (Fab, V domains shown) VH: EVQLVESGGGVVQPGRSLRLSCVASGFTFSSYDIHWVRQAPGKGLEWVAIISYDGSKKDYTDSVKGRFTISRDNSKNTLYLQMDSLRVEDSAVYSCARESGWSHYYYYGMDVWGQGTMVTVSS VL: DIVMTQSPSSLSASVGDRVTITCRASQDISNYLAWYQQKPGKVPKFLIYAASTLHSGVPSRFSGSGSGTDFTLTISSLQPEDVATYYCQKYNSAPYTFGQGTRLEIK |
| 0.078 | KL2B467 (Fab) (Fab, V domains shown) VH: QVQLVESGGGVVQPGRSLRLSCAASGFTFSYYGMHWVRQAPGKGLEWVAFISYDGSNKYYADSVKGRFTISRDNSKNTLYLQMNSLRAEDTAVYYCAHLPYSGSYWAFDYWGQGTQVTVSS VL: QSVLTQPPSVSVAPGQTASITCGGDNIGSKSVHWYQQKPGQAPVLVVYDNSDRPSGIPERFSGSNSGTTATLTISRVEAGDEADYYCQVWDSSSDHPVVFGGGTKVTV |
